These results are taken from PMC4660432.

One may read the Kd as the constant that tells how readily two partners part at equilibrium.

For data set [1], the system named is TAF1 double bromodomain (TAF1-BrD). As to the kind of experiment: EMSA. Conditions: EMSA: 20 mM Tris-HCl pH 7.5, 40 mM NaCl, 0.75 mM EDTA, 1 mM DTT, 1 h at 25 C, 2.5 pmol NCP, 5% native PAGE in 0.2x TBE. For orientation: Mobility shift assays separate free from complexed probe on a gel.
Data set [2] has as its target unmodified nucleosome core particle (biochemical analyses; N11-thrombin-tagged H4) (human) (UniProt P04908). As to the kind of experiment: native gel or EMSA; 2.5 pmol NCP mixed with the TAF1-BrD at the indicated ratios; 20 mM Tris-HCl pH 7.5, 40 mM NaCl, 0.75 mM EDTA, 1 mM DTT; 1 hr at 25 °C; native 5% PAGE in 0.2x TBE; densitometry; dissociation constants estimated from triplicates.

The target in data set [3] is K5/K8/K12/K16-tetra-acetylated nucleosome core particle (biochemical analyses; N11-thrombin-tagged H4) (human) (UniProt P04908). The data set is described as above.
Data set [4] concerns the target K12-acetylated nucleosome core particle (human) (UniProt P04908). The data set is described as above.
In data set [5] the target is K16-acetylated nucleosome core particle (human) (UniProt P04908). Described as above.
Data set [6] addresses K5/K8-di-acetylated nucleosome core particle (human) (UniProt P04908). The description is as above.

As for H4-K5/K8-di-acetylated NCP, the Kd in data set [1] (histone H4 K5ac, K8ac) was 6.1 µM. The substance unmodified NCP gave an equilibrium dissociation constant (Kd) in data set [1] of 19.3 µM. With H4-K12ac NCP, the Kd in data set [1] (histone H4 K12ac) worked out at 12.3 µM. For “TAF1 double bromodomain (from UniProt P21675 1-1893) (domain or fragment)”, the equilibrium dissociation constant (Kd) in data set [2] is 19.3 µM; in data set [3], 3.9 µM; in data set [4], 12.3 µM; in data set [5], 13.3 µM; in data set [6], 6.1 µM.

Turning to H4-K5/K8/K12/K16-tetra-acetylated NCP, the equilibrium dissociation constant (Kd) in data set [1] (histone H4 K5ac, K8ac, K12ac, K16ac) was found to be 3.9 µM. With H4-K16ac NCP, the Kd in data set [1] (histone H4 K16ac) is 13.3 µM.
